Experimental data: patent US20040265965A1 (ELAN PHARMACEUTICALS, published 2004)
Non-standard residues stand in square brackets, D forms with d. No end group written: not given here. Sta = CC(C)C[C@H](N)[C@@H](O)CC(=O)O

Tests used:
[1] = target: T1, Δ2,3-452H soluble BACE (S174I, N223A, histidine tag), baculovirus/Sf9 (human, UniProt P56817 22-452); assay: affinity chromatography on the immobilised inhibitor peptide
T1 construct: not shown: histidine tag

[2] = target: T2, Δ2,3-452H,NINL soluble BACE (S174I, N223A, R42L43P44R45 changed to NINL, histidine tag), baculovirus/Sf9 (human, UniProt P56817 46-452); assay: as above
T2 construct: not shown: histidine tag
T2 sequence (P56817 other isoform, or with tags, fused parts or gaps S174I N223A S174I N223A): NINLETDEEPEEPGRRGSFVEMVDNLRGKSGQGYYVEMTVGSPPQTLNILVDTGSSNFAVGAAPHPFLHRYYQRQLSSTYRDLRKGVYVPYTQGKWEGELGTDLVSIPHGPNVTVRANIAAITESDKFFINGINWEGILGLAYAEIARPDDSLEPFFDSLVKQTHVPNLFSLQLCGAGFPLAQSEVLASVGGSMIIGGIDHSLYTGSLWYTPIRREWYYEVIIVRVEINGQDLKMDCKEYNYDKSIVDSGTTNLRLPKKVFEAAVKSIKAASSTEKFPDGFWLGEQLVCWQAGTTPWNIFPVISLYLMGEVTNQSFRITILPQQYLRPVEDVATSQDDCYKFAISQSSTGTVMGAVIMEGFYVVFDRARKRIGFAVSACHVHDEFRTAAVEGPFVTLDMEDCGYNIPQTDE

T1 sequence (P56817 22-452 S174I/N223A): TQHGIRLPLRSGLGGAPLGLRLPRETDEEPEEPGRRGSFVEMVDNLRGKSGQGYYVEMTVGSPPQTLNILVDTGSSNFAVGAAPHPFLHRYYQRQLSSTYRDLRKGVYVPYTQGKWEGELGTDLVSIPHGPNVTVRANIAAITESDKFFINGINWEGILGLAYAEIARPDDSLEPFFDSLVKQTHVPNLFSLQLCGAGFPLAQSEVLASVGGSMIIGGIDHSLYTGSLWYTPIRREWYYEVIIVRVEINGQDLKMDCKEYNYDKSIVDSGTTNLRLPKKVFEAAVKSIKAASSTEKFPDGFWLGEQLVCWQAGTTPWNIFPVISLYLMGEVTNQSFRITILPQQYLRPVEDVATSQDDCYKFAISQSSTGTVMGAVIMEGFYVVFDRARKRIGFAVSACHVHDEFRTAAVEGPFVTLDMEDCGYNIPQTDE

B1: P10-P4′staD→V inhibitor peptide, KTEEISEVN[sta]VAEF (peptide)
peptide: KTEEISEVN[Sta]VAEF
notes: also called P10-P4′staV; P10-4′staD→V
- binding result [1]: binds
- binding result [2]: binds
